Laboratory results published in US20050164323A1 (Pfizer, published 2005).

Biological target: PKC-θ kinase domain (PKC-θ KD; amino acid residues 362 to 706), C-terminal hexa-histidine tag, expressed in … (Homo sapiens (Human), UniProt Q04759 362-706, autophosphorylated at 5 or 6 residues in E. coli; sites identified: Ser695, Ser685 and Thr538 or Thr536 (numbering of full-length PKC-θ))
Experiment: cell-based or functional assay

PKC-θ kinase domain (PKC-θ KD; amino acid residues 362 to 706), C-terminal hexa-histidine tag, expressed in …, sequence (Q04759 other isoform, or with tags, fused parts or gaps limits assumed): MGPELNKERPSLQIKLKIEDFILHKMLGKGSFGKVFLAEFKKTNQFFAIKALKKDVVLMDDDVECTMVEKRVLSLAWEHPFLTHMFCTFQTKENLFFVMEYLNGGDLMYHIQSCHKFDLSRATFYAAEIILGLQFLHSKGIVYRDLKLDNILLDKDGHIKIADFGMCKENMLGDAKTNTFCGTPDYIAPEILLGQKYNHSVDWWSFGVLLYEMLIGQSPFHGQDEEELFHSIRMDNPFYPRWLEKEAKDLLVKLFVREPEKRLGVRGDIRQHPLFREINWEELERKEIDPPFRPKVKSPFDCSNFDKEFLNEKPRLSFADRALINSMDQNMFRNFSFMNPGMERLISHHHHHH

Row | Binder | appKm (steady-state kinase kinetics, saturating ATP, 100 mM NaCl) [µM]
1 | LKRSLSEM [Peptide 3 (LKRSLSEM), substrate, Serum Response Factor] | 420
2 | RFARKGSLRQKNV [Peptide 2 (RFARKGSLRQKNV), substrate, pseudo-substrate PKC alpha] | 4.3
3 | RTPKLARQASIELPSM [Peptide 4 (RTPKLARQASIELPSM), substrate, lymphocyte-specific protein 1] | 240
4 | FARKGSLRQ [Peptide 1 (FARKGSLRQ), substrate, pseudo-substrate PKC alpha] | 6.5
